For assay [1], the target named is Vg5/Vd2 T cell receptor on SKW3 cells (AG000003285; CLI000001325 (C3820A)) (UniProt A0JD36). The experiment in a line: flow cytometry, DRC binding at 37°C on SKW3 cells expressing Vg5/Vd2. On the technique in general: In flow cytometry, cells or beads pass a laser one at a time.
Assay [2] deals with Vg9/Vd1 T cell receptor on SKW3 cells (AG000003287; CLI000001326 (C3821A)) (UniProt Q99603). Briefly: flow cytometry, DRC binding at 37°C on SKW3 cells expressing Vg9/Vd1.
For assay [3], the target named is Vg9/Vd2 T cell receptor on SKW3_4 cells (AG000003284; CLI000001324 (C3819A)) (UniProt Q99603). The experiment in a line: flow cytometry, DRC binding at 37°C on SKW3_4 cells expressing Vg9/Vd2.
Vg9/Vd2 T cell receptor on SKW3_4 cells (AG000003284; CLI000001324 (C3819A)), sequence (Q99603 21-122, chain 1 of 2): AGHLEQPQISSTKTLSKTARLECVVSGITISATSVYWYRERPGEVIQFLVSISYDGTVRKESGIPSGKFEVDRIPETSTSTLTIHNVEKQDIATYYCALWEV
Vg9/Vd2 T cell receptor on SKW3_4 cells (AG000003284; CLI000001324 (C3819A)), sequence (A0JD36 20-115, chain 2 of 2, further chain): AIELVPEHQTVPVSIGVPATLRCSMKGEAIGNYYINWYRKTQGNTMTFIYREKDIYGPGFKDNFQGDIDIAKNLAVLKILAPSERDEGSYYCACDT

Vg5/Vd2 T cell receptor on SKW3 cells (AG000003285; CLI000001325 (C3820A)), sequence (A0JD36 20-115, stated change not applied): as the sequence (A0JD36 20-115, chain 2 of 2, further chain) above
Vg9/Vd1 T cell receptor on SKW3 cells (AG000003287; CLI000001326 (C3821A)), sequence (Q99603 21-122, stated change not applied): as the sequence (Q99603 21-122, chain 1 of 2) above

B1: VG9B195 (antibody, human IgG1, lambda, V domains shown)
VH: EVQLVESGGGLVKPGGSLRLSCAASGFTFSPYTMNWVRQAPGKGLEWVSSISSSSSYMYYADSVKGRFTISRDNAKNSLYLQMNSLRAEDTAVYYCARDGDLVGPTYYFDYWGQGTLVTVSS
VL: SYELMQPPSVSVSPGQTASITCSGDKLGDKYACWYQQKPGQSPVLVIYQHNKRPSGIPERFSGSNSGKTATLTISGTQAMDEADYYCQAWDSTTVVFGGGTKLTVLG
As for B1, the Max. Activity (fold over background) in assay [1] is 10.3; in assay [2], 300; in assay [3], 119.

These data come from patent US20220125947A1.
